T1: host protein UBE3A (Abcam), coupled to Luminex beads, Q05086
T1 chain: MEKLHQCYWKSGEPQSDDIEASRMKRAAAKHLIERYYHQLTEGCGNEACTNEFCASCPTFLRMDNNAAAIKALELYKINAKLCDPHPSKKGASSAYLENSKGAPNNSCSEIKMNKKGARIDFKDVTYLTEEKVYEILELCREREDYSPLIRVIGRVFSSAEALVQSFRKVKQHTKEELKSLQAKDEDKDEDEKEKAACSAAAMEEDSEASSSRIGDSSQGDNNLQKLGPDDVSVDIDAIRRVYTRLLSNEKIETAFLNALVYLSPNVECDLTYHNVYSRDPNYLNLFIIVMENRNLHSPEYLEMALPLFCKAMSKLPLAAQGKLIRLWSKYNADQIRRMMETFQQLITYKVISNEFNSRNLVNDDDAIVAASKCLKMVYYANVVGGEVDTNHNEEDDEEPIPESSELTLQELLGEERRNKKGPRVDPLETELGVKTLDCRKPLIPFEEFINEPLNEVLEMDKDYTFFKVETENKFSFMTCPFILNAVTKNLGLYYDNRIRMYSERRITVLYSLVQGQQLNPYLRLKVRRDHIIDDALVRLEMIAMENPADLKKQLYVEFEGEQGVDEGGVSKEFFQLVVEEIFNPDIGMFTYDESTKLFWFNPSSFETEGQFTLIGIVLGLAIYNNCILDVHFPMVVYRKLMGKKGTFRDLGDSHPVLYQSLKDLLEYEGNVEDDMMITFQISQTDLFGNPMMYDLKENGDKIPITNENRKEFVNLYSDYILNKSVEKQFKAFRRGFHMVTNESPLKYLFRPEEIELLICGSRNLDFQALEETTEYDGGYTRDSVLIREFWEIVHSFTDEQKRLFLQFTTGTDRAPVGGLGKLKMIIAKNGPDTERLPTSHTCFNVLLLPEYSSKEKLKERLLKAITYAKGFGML

T2: UBE3A on the ProtoArray human protein microarray, Q05086
T2 chain: T1 chain

B1: IA2_E64K (antibody, V domains shown)
V domain 1: QVQLQESGPGVVKSSETLSLTCTVSGGSMGGTYWSWLRLSPGKGLEWIGYIFHTGHTNYNPSLKGRVSISVDTSEDQFSLRLRSVTAADTAVYFCASLPRGQLVNAYFRNWGRGTLVSVTA
V domain 2: SYELTQPPSVSVSPGQTATITCSGDKVASKNVCWYQVKPGQSPEVVMYENYKRPSGIPDRFSGSKSGSTATLTIRGTQATDEADYYCQVWDSFSTFVFGSGTQVTV
notes: as the heavy chain of m8 (IA2); as the light chain of m8 (IA2); recombinant IgG; also called the E64K mutant; IA2 E64K mutant; source: Expi293, transiently transfected, purified (Protein A agarose)
B2: IA2_N60S (antibody, V domains shown)
V domain 1: B1 V domain 1 with N60S, K64E
V domain 2: B1 V domain 2
notes: as the heavy chain of m8 (IA2); as the light chain of m8 (IA2); recombinant IgG; also called the N60S mutant; IA2 N60S mutant; source: Expi293, transiently transfected, purified (Protein A agarose)
B3: IA1, inferred late intermediate of the CH103-106 bnAb lineage (antibody, V domains shown)
V domain 1: B1 V domain 1 with N60S
V domain 2: B1 V domain 2
notes: as the heavy chain of m8 (IA2) with the two changes below; same light chain as IA2; recombinant IgG; also called 1A1; source: Expi293, transiently transfected, purified (Protein A agarose)
B4: CH103 VH E56H mutant (antibody, V domains shown)
V domain 1: B1 V domain 1 with N60S, T115S
V domain 2: SYELTQPPSVSVSPGQTATITCSGASTNVCWYQVKPGQSPEVVIFENYKRPSGIPDRFSGSKSGSTATLTIRGTQAIDEADYYCQVWDSFSTFVFGSGTQVTV
notes: as the heavy chain of m10 (CH103); as the light chain of m10 (CH103); recombinant IgG; also called the VH E56H mutant; source: Expi293, transiently transfected, purified (Protein A agarose)
B5: CH103 VH T23S mutant (antibody, V domains shown)
V domain 1: B1 V domain 1 with T23S, H56E, N60S, T115S
V domain 2: B4 V domain 2
notes: as the heavy chain of m10 (CH103); as the light chain of m10 (CH103); recombinant IgG; source: Expi293, transiently transfected, purified (Protein A agarose)
B6: CH103 VL I48M mutant (antibody, V domains shown)
V domain 1: B1 V domain 1 with H56E, N60S, T115S
V domain 2: B4 V domain 2 with I44M
notes: as for B5
B7: CH103 VH S107I mutant (antibody, V domains shown)
V domain 1: B1 V domain 1 with H56E, N60S, T115I
V domain 2: B4 V domain 2
notes: as for B5
B8: CH103 VL I81T mutant (antibody, V domains shown)
V domain 1: B1 V domain 1 with H56E, N60S, T115S
V domain 2: B4 V domain 2 with I77T
notes: as for B5
B9: CH103 VL E45D mutant (antibody, V domains shown)
V domain 1: B1 V domain 1 with H56E, N60S, T115S
V domain 2: B4 V domain 2 with E41D
notes: as the heavy chain of m10 (CH103); as the light chain of m10 (CH103); recombinant IgG; also called the VL E45D mutant; source: Expi293, transiently transfected, purified (Protein A agarose)
B10: CH103, mature CD4 binding site bnAb (antibody, V domains shown)
V domain 1: B1 V domain 1 with H56E, N60S, T115S
V domain 2: B4 V domain 2
notes: recombinant IgG; source: Expi293, transiently transfected, purified (Protein A agarose)
B11: CH103 mutant containing both the E56H and E45D mutations (antibody, V domains shown)
V domain 1: B1 V domain 1 with N60S, T115S
V domain 2: B4 V domain 2 with E41D
notes: as the heavy chain of m10 (CH103); as the light chain of m10 (CH103); recombinant IgG; the double mutant is named only in the results; also called CH103 VH E56H + VL E45D; source: Expi293, transiently transfected, purified (Protein A agarose)
B12: CH106, mature CD4 binding site bnAb (antibody, V domains shown)
V domain 1: B1 V domain 1 with T23S, N60S, T115I
V domain 2: B1 V domain 2 with K30V, E44D, D84E
notes: as the heavy chain of m10 (CH103) with the three differences below; as the light chain of m10 (CH103) with the differences below and a 3-aa (DKV) insertion; recombinant IgG; source: Expi293, transiently transfected, purified (Protein A agarose)
B13: IA2, inferred late intermediate of the CH103-106 bnAb lineage (antibody, V domains shown)
V domain 1: B1 V domain 1 with K64E
V domain 2: B1 V domain 2
notes: same light chain as IA1; recombinant IgG; source: Expi293, transiently transfected, purified (Protein A agarose)
B14: CH103 VL mutant with the 3-aa insertion (DKV) (antibody, V domains shown)
V domain 1: B1 V domain 1 with H56E, N60S, T115S
V domain 2: B1 V domain 2 with K30T, M47I, Y48F, T80I
notes: as the heavy chain of m10 (CH103); as the light chain of m10 (CH103) with DKV inserted as in CH106; recombinant IgG; also called 3-aa (DKV) insertion; source: Expi293, transiently transfected, purified (Protein A agarose)
B15: CH103 VL T31V mutant (antibody, V domains shown)
V domain 1: B1 V domain 1 with H56E, N60S, T115S
V domain 2: B4 V domain 2 with T27V
notes: as for B5
B16: CH103 VL F49Y mutant (antibody, V domains shown)
V domain 1: B1 V domain 1 with H56E, N60S, T115S
V domain 2: B4 V domain 2 with F45Y
notes: as for B5
B17: CH103 VL D85E mutant (antibody, V domains shown)
V domain 1: B1 V domain 1 with H56E, N60S, T115S
V domain 2: B4 V domain 2 with D81E
notes: as for B5

Where a chain is given by its changes, count along the chain named. In names and notes the source's numbering stands.

The first assay has as its target T1, host protein UBE3A (Abcam), coupled to …. Description: Luminex bead assay. As to conditions: chain shown with the change; left panel; highest antibody concentration plotted, est. 2000 ng/ml; parent: est. 12; read off a plot.
Turning to B1, the response worked out at 2200 gMFI.
On the same count and under the same terms, next, B2: 8.5 gMFI.

The target of the next assay is T3, UBE3A on the ProtoArray human protein microarray (Homo sapiens, UniProt Q05086).
T3 construct: UBE3A, one of the 9,400 human proteins on the ProtoArray; source: bought: Invitrogen ProtoArray
Briefly: peptide or protein array; ProtoArray (Invitrogen) with 9,400 human proteins, in duplicate; 2 µg/ml recombinant Ab, 1.5 hours at 4°C; detected with Alexa Fluor 647 anti-human IgG; compared with the control Ab 151K. Conditions: both partners purified.
In the case of B1, the “fold higher binding than Abs without E64K” value was ~10 fold.
Same read-out and setting: the result for B3 reads ~10 fold.

The target of a further assay is T2, UBE3A on the ProtoArray human protein …. Briefly: ProtoArray protein array. Conditions: chain shown with the change; red circle = UBE3A; x coordinate of the circle; parent: est. 45; read off a plot.
B2: the response was 45 MFI.

For a further assay, the target named is T4, Cen B (Homo sapiens (assumed), UniProt P07199).
T4 construct: Cen B autoantigen (centromere protein B) of the autoantigen ELISA
T4 sequence (P07199 whole entry): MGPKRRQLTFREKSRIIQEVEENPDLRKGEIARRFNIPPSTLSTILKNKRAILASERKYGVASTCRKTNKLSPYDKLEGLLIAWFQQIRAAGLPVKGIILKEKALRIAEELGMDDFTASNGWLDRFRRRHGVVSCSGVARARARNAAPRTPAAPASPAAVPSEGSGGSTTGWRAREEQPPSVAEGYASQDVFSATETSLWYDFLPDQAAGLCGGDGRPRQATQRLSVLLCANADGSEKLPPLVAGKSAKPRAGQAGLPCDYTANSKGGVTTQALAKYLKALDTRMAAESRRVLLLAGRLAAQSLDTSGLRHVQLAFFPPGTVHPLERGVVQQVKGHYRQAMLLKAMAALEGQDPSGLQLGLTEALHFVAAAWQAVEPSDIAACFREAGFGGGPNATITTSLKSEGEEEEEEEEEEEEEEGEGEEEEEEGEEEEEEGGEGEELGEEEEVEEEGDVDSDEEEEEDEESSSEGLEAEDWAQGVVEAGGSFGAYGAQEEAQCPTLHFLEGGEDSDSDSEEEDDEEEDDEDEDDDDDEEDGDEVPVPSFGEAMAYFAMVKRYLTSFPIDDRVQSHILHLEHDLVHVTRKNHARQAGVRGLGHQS
Description: ELISA; autoantigen ELISA (legend: Athena autoantigen assay); antigens coated at 20 µg/ml overnight at 4°C; Abs in serial dilutions 45 min at RT; HRP anti-human IgG, TMB, 450 nm. As to conditions: both partners purified.
Turning to B1, the binding result is recorded as “binds”.
Still for that read-out and setting: the result for B4 reads “binds”.

A further assay addresses T5, host protein UBE3A (Abcam), coupled to Luminex beads (Homo sapiens, UniProt Q05086).
T5 construct: UBE3A, host protein; bought from Abcam (printed there as UBE34); also called UBE34; source: bought: Abcam
Description: Luminex bead-based binding assay; UBE3A (Abcam) covalently linked to carboxylated beads; Abs serially diluted 1:3 from 2 µg/ml in PBS with 0.05% NaN3, 0.05% Tween 20, 1% BSA and 1% milk; 2 hours at room temperature; detected with PE goat anti-human IgG. As to conditions: both partners purified.
With B5, the binding result was “binds”.
Consider B2, for which the binding result is given as “no binding (tested: 2 µg/ml)”.
Regarding B6, the “fold reduction of binding against parental CH103” value is ~10 fold.
Turning to B7, the binding result is listed as “binds”.
Same read-out and setting: next, B8: “binds”; B9: “binds”.
On the same count and under the same terms, next, B4: “binds”.
On the same count and under the same terms, the result for B10 reads “binds”.
Take B11: the binding result is on record as “binds”.
Same read-out and setting: next, B12: “binds”; B13: “no binding (tested: 2 µg/ml)”.
With B14, the binding result is reported as “binds”.
On the same count and under the same terms, the result for B15 reads “binds”.
Consider B16, for which the “fold reduction of binding against parental CH103” value is ~10 fold.
As for B17, the binding result is on record as “binds”.

A further assay addresses host proteins on the ProtoArray (9,400 human proteins) (human). Description: peptide or protein array; ProtoArray (Invitrogen) with 9,400 human proteins, in duplicate; 2 µg/ml recombinant Ab, 1.5 hours at 4°C; detected with Alexa Fluor 647 anti-human IgG; compared with the control Ab 151K.
Conditions: not given
As to B1, the polyreactivity index (PI) is 0.14.
For the molecule B3, the polyreactivity index (PI) was determined as 0.64.

Source of the values: publication PMC9720396, “Autoreactivity and broad neutralization of antibodies against HIV-1 are governed by distinct mutations: Implications for vaccine design strategies” (Frontiers in Immunology, 2022).
